This data set deals with the molecule itself. As to the kind of experiment: ELISA; ELISA-based time-resolved fluorescence spectroscopy assay; unlabeled Nectin-2-ED-hFc immobilised on a Delfia Clear Strip Plate, Eu-labeled Nectin-2-ED-hFc at 3.2 ug/mL added together with anti-Nectin-2 mAb at 30 ug/mL or a human IgG control, 1.5 h at room temperature. A general note: ELISA stands for enzyme-linked immunosorbent assay.

The values that follow come from publication PMC3698035, “Nectin-2 is a potential target for antibody therapy of breast and ovarian cancers” (Molecular Cancer, 2013).

B1: Nectin-2-ED-hFc (Fc fusion, human, UniProt Q92692 32-361, looked up)
chain: QDVRVQVLPEVRGQLGGTVELPCHLLPPVPGLYISLVTWQRPDAPANHQNVAAFHPKMGPSFPSPKPGSERLSFVSAKQSTGQDTEAELQDATLALHGLTVEDEGNYTCEFATFPKGSVRGMTWLRVIAKPKNQAEAQKVTFSQDPTTVALCISKEGRPPARISWLSSLDWEAKETQVSGTLAGTVTVTSRFTLVPSGRADGVTVTCKVEHESFEEPALIPVTLSVRYPPEVSISGYDDNWYLGRTDATLSCDVRSNPEPTGYDWSTTSGTFPTSAVAQGSQLVIHAVDSLFNTTFVCTVTNAVGMGRAEQVIFVRETPNTAGAGATGGI
modifications: europium N1 ITC chelate (only on the Eu-labeled copy added in solution in the Nectin-2-Nectin-2 assay)
notes: signal peptide in the construct; Nectin-2, cloned from cDNA of the A549 human lung cancer cell line, extracellular domain a.a; 1-361; Plasmid pcDNA3.1-Nectin-2-ED-hFc; In the Nectin-2-Nectin-2 assay one copy was unlabeled on the plate and the other Eu-labeled in solution; also called Nectin-2 extracellular domain (a.a. 1-361) fused to the human IgG1 Fc region; source: FreeStyle 293 F cells, …
Consider B1, for which the binding result is reported as “binds”.
